Source: EP4467153A1, “CONSTRAINED PEPTIDE INHIBITORS OF LRRK2-FADD INTERACTIONS” (University of Georgia Research Foundation, Inc., priority 2023, dated 2024)
Entries after “also recorded” stand apart in the source; their conditions may differ. Positions of bridges follow the written chain, without caps; N, C: chain ends. Non-standard residues stand in square brackets, D forms with d. Primed or numbered codes have the meaning given here. FAM = 5(6)-carboxyfluorescein label; S5 = C=CCCC[C@](C)(N)C(=O)O; PEG3′ = PEG3 spacer

How the values were obtained:
primary cortical neurons = assay: Uptake of FAM-labeled peptide in primary cortical neurons (confocal imaging); type: cell-based, mouse; settings: neurons expressing G2019S-LRRK2, 1 µM
[1] = target: T1, LRRK2-FADD PPI (Flag G2019S-LRRK2 and V5-FADD) (Homo sapiens, UniProt Q5S007, G2019S); assay: Co-immunoprecipitation of LRRK2-FADD interaction in transfected HEK293T cells; type: cell-based
T1 construct: expressed in transfected cells; host or cells: HEK293T
T1 sequence (Q5S007 whole entry G2019S): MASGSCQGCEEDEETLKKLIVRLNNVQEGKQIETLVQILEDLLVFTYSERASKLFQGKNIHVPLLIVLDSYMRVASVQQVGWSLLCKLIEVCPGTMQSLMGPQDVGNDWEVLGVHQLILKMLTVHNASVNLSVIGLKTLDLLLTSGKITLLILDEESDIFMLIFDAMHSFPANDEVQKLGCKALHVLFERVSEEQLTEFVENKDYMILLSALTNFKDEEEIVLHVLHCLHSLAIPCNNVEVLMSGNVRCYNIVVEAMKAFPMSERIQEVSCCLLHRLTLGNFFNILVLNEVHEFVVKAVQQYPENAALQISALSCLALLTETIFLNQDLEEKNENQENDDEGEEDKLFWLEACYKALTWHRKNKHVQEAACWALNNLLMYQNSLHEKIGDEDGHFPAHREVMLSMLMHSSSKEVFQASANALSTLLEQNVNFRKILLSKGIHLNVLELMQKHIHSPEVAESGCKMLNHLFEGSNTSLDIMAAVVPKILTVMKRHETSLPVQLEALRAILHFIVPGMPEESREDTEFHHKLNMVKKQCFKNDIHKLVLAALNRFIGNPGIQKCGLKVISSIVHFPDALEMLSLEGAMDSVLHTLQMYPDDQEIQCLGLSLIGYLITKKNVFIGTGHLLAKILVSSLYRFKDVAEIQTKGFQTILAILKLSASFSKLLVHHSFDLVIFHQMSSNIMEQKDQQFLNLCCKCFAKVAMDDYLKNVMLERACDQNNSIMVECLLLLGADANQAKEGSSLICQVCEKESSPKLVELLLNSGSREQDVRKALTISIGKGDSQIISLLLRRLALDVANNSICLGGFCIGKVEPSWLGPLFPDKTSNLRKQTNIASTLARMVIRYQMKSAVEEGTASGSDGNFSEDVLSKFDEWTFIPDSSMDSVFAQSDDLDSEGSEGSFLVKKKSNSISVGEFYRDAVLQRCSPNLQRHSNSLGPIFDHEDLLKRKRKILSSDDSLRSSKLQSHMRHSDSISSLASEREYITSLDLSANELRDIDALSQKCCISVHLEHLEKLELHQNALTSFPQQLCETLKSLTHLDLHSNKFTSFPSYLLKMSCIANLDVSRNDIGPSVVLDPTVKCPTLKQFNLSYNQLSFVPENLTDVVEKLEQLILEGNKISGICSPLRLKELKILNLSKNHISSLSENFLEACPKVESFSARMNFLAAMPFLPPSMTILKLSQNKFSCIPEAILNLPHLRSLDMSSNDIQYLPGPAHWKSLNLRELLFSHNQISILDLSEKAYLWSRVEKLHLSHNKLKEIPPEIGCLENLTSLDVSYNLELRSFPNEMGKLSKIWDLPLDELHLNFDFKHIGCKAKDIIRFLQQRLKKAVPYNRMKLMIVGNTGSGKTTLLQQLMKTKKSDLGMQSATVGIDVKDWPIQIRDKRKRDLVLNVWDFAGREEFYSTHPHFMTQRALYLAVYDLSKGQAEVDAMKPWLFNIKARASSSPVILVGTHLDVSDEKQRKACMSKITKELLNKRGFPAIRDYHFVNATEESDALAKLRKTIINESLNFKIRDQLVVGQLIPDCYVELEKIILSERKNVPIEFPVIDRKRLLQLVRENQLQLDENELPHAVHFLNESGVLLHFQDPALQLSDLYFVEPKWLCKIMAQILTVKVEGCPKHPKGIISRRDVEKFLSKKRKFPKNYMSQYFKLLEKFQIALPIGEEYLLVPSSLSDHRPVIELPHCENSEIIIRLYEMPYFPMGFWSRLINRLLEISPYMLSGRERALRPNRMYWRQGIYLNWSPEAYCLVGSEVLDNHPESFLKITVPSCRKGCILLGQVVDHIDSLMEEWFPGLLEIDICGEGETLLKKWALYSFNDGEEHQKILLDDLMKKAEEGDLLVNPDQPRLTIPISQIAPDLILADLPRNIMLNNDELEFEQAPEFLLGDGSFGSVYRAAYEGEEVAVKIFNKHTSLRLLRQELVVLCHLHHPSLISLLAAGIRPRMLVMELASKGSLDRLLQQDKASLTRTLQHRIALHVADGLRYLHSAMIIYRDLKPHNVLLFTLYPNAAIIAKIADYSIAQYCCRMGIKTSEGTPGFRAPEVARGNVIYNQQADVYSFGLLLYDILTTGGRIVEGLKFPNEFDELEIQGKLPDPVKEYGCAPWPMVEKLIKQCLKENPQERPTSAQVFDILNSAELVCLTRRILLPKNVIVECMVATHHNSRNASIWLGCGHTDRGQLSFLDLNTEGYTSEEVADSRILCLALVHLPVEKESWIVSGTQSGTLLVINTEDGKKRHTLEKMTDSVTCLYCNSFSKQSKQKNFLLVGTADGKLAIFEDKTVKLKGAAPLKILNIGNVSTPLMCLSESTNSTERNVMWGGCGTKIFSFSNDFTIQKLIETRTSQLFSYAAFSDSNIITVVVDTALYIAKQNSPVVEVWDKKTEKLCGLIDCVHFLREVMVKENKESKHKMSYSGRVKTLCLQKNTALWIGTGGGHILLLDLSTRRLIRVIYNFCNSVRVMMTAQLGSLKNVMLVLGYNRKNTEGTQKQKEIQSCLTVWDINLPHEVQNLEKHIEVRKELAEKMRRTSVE
Method: It was then assessed whether this peptide library (FARM1-FARM5) could disrupt the interaction between over-expressed Flag G2019S-LRRK2 and V5-FADD by co-immunoprecipitation. Flag-LRRK2 was purified on anti-Flag resin and the eluate as well as the protein extract (input) separated by SDS-PAGE, with the membranes probed for V5 (FADD) and Flag (LRRK2). The transfected cells were treated with the indicated peptide (10 µM) for a total of 48 hr prior to collection. […] To minimize the use of primary mouse cortical neuron cultures, FARMS was used in subsequent experiments to examine the potential neuroprotective effects of LRRK2-FADD disruption.
Assessment of LRRK2-FADD interaction. Co-immunoprecipitation was undertaken to determine the effects of the stapled peptides on the LRRK2-FADD PPI, as previously described. Briefly, 10cm plates of HEK293T cells transiently expressing Flag-WT or mutant LRRK2 and V5-FADD (at a 3:1 ratio), and treated with different concentrations of FARM peptides (as indicated in the Figure legends), were washed in PBS and lysed in co-IP buffer (20mM HEPES, pH7.4; 150 mM NaCl; 0.1% NP40; 2 mM EGTA; 2 mM MgCl2; 10% glycerol, pH 7.2; protease and phosphatase cocktail [Agilent Technologies]) for 30 min on ice followed by 15 strokes with a Dounce glass homogenizer, and centrifugation at 13000 rpm for 15 min to remove cellular debris. Following pre-clearing with IgG-coupled beads, 40 µl of washed anti-Flag resin (Sigma-Aldrich) per mg of protein was added and the samples incubated under rotation overnight at 4°C. The following morning, the beads were centrifuged and washed a total of 5X with coIP buffer, before elution in 2X SDS sample buffer at 95°C for 10 min. The eluate (and input) was separated by SDS-PAGE and membranes probed with anti-Flag (LRRK2) and V5 (FADD).

HEK293T cells = assay: Cellular uptake of FAM-labeled peptides in HEK293T cells (fluorescence imaging); type: cell-based
From the text: • FIGs. 1A-1D depict the design and structure of constrained peptides targeting the LRRK2-FADD PPI. (FIG. 1A) Structural representation of the region of the LRRK2 ARM domain in which the FADD-binding motif is located, shown with the fragment of the FADD death domain that binds LRRK2. (FIG. 1B) Highlight schematic of the relevant binding domains within LRRK2 and FADD, and the corresponding amino acid sequence that mediates this PPI is highlighted. (FIG. 1C) Schematic representation of the solid phase peptide synthesis, highlighting the placement of the synthetic amino acids for the placement of the peptide staple. (FIG. 1D) Sequences of the five stapled peptides synthesized, with the position of the synthetic residues in each peptide indicated by an asterisk. • FIGs. 2A-2B depict the cellular uptake of stapled vs. native peptides. (FIG. 2A) HEK293T cells were incubated with 5 µM of non-stapled control or constrained FARMS for a period of 24 hr. […] In the eluate, a dose-dependent reduction of FADD was detected with increasing concentrations of FARMS. […] (FIG. 4B) The percentage of transfected neurons with apoptotic nuclear features was determined in a blinded fashion. […] (FIG. 5B) The band intensities in FIG. 5A were quantified using Image J (n=2). […] (FIG. 5C) Phosphorylation of endogenous RablO in HEK293T cells by over-expressed WT or R1441C-LRRK2 was determined by Western blot, as in FIG. 5A. […]

## FARM5: FAM-labeled hydrocarbon-stapled FADD Armadillo domain peptide; mass fits SEQ ID NO. 6 KVADLVQEVQQAXDLQXRSK ({FAM-PEG3′}-KVADLVQEVQQA[S5]DLQ[S5]RSK-NH2; staple 13-17; also: FAM label, optionally 5(6)FAM-PEG3 on N-terminal lysine) [FAM-labeled hydrocarbon-stapled FADD Armadillo domain peptide; 6 …XDLQXRSK]
Primary cortical neurons
  fluorescent signal from the FAM peptide tag in neurons: diffusely distributed throughout most neurons
[1]; 10 µM, 48 hr, normalized to immunoprecipitated Flag-LRRK2, listed as FARMS
  amount of FADD that co-purified with G2019S-LRRK2 (LRRK2-FADD interaction): greatest, and most consistent, reduction; also recorded: reduced the interaction between LRRK2 and FADD
[1]; 0.1 to 10 µM, 24hr
  dose-dependency of the disruption of the LRRK2-FADD PPI: progressive reduction in the LRRK2-FADD PPI with increasing doses
HEK293T cells; 5 µM FAM-labeled peptide, 24 hr
  cellular uptake (permeation of cells): clear diffuse fluorescent signal along with a few visible puncta was observed throughout cells
HEK293T cells; 0.1 or 10 µM, 24hr
  dose-dependency of uptake of FAM-labeled peptide: dose-dependent
